Measurements as given in the domain aggregation screens of Martell et al. (2025).

Test: soluble fraction after stress (log2 fold change); higher = more stays soluble; pooled small domains, quantitative proteomics
Conditions: stress: 50 degC
Procedure, shortened: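 Pooled custom libraries of small protein domains were measured in a high-throughput format, with quantitative proteomics as the read-out. Each library was stressed at 50°C. Aggregation propensity is given as the base-two logarithm of the fold change in how much of each protein stays soluble after the stress. Higher values mean a larger share of the protein remains in solution.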

Sequence	soluble fraction (log2)
HMGALAITPDFVGQTREEAERFLRDLDLSFDIGGKGDRILRQEPVAGQRMNLDQPMKLWVGSMNA	0.0609
HMEVPMELPRQLRANRERLGLSQEDVAHAIYVSRQTMSSWERGKTYPDVQSLMLLSHLFGISIDELVKGDV	-1.55
HMLPDLLNGRVIPSPEKVIRARLNRGVWELLVQWVGRAPSDATWENLLEFKSAYPSVQLEDALF	-1.45
HMENAEALLKKLSGVLSDYEYKMLMLYADGKTPRRIAQETGQSAKSVSNALFRARTKLKELYEDQ	-0.331
HMNSKMTYSELVTNITNKEVESIKISSTGSTASVKLKNSKSEKEVNIPSLDSFMSYTEEYLKTGDFTLDEE	-0.144
HMTFEPVYDENSRILILGTFPSVKSREQQFYYGHPQNRFWKLLAALTGWKVPKTISEKKELLLQNGIA	-0.136
HMGKAMIDWEREQSILRILLRQKALTTEQAREVYQDGMREDLSALEMGVQRGYFTHEQLREATGGE	0.0179
HMGDLDLVTFGQRLRHLRRSRNMTLSELGERVGRAPSQLSLLENGKREPKLSLLTALAKALDVSVEEL	-0.75
HMQPQIDFEIDVEVRASSLRIVAAPNSDVLVATVGRGEHVVQLTYPKDGWVMIRTADDRVGFVPESLLL	-0.255
HMSTKEFTIHAGEWSYRVSQKLENLGLVSDAKKFDQYLEDNGYSSKIKIGHYTISKDADFEEIAKEIT	0.0383
HMEKERYDTGIGELNRVLGGGLVKGSLILISGDPGIGKSTLLLQTANNISKKYGKVLYVSGEESEEQIKIR	-0.319
HMSEMLPFDEARRQFERDYLVQLLKLTSGNVSQAARLARRNRTDFYALLGRHQLEPASFKPE	-0.298
HMDPLPDEVQEVIDMVDGFKAMDELSEADKADVKAAYDAYNALSAEHKAMVPEHIVTFLNRAYDKLFD	0.0291
HMELSPAELGERLKVARETANVTQDAGAKAAGIARTTLVAIEKGQRSARIDELQTLSRRYGVSVNSLLRR	-0.135
HMDFNDPTMEKSLVELPAMSNSTLRDLSENNIKKLEELAEMSVGELMDIASKISESDASALIMEARKPWF	-0.137
HMEVAVQFIEFKIPENHAWIGKEIREITFPPESILVLIIRDGKKLVPNGKTVLKEGDSLILSGKASD	-0.538
HMKTATAKIKATPFGWLRVRETPSLNGAEIARVNSGESYKILERGEGWIKIKVSDTVEGWVSEAYVELS	-0.102
HMSGSKEQQIVILNNILERQLQAFGLQGNREFPMVTLKNIYNSLSKIIENAGLKNVENYFVNPEQGKQM	-0.256
HMSHSVLIDISQLRIGMYIQLDVGWMHHPFPVSSFRVASLEQIEALRTLNLAQVRYFPAKSDPV	-3.6
HMPRPFPELTTREHDILALIARGWSNGRIADHLSLSGKTVSNYVSNILGKLQVTARAEAAERAREAGMGQ	-0.00905
HMLLTEETLPQLKQIVDEFPYFQIARMLYLKNLAVLNDIRFSVELKKMSIYVPDRRKLFTLIEGE	0.00426
HMNHAPSLMRKIRRGLKEGRNPDDLLVNAKSISDYYYRSLSFYLLAPHFSSKSKQYKQVISLANS	0.036
HMDYNLTKNQKIVFNLLQNSGEPLKAYTILESLKREGLKSPLQVYRALDKLVELGIIHKIESQNSFI	-0.45
HMKIGIYPGTFDPITHGHTDIIRRSLRVFDKVVVAVAPNPSKHPLFTLTERLEMIRIVMKELEHVEVT	0.0231
HMVETDQESSLIQAIYKYFEITGDNTFFDEKVGEKTVADRMEWAMDYLIQNRFSEEYGLIWGA	-0.2
HMRPEKLVLKALRGAHGPLSAEEVAGRIEADGGAGLDVARVEHVLGQLERSGTVAALGGGKYLALR	0.281

Sequence	soluble fraction (log2)
HMTYAQQIGARIAFLRRLKGLTLAELAERVNKHKSTISKYESGQIIIDIESLKEVADALGVDVAQIVE	-0.0214
HMPYHSEAWHKVMKSHWLTLSREEAYMHEGRTGASTINIVFQRELGREATQEEIESIYQEKSVLFNSYP	-1.46
HMGPKPVDMSPIPEGQRNQVLHDWMYGRAANHPENWGQIRSDALERGLKSGLKADEIHAITGSVARALGLE	0.12
HMGGQYQVRPGETLNQIAARVRPSNMSLSETQKAIIQANPDIFKNGNPNLIFAGDILRIPTGNQI	0.211
HMSSDLDQYMKNIRKQHNLSKREFAKQLGISAATIVRIENGITVSPSKNLISKLAYYLQKSEVEILQDIQS	-1.08
HMSELSEVIEKTFEELPEELKLIVKLREIDDLSYDEISNKIGIPIGTVRSRLHRAREILINIIKN	-1.55
HMKSPVKLILRGSIYHIKISAVVNGQRIFVRESSHTTDKREAEQYANKRFAQLVEETEFRTN	-1.11
HMDLPSSETLKVKLNLAKAYVTIEDFGAARRALDEVLSVSSLVDPDLTIQAKSLLAEIDQRS	-0.0514
HMRLTTTPKTARGLTTMNRIIRAAEVEFGRKGYHYTGITDIAQRAKVASGTIYLYFTDKYSLYVHLLT	0.246
HMYELREGDVVSVRILSQTGQNSYIASFAGGRFSVTSERAFAPGTVFSASVSLKDGTLVLSPL	-0.568
HMLKEGIKEKINQLQVYADKNDNIIWYDRVVDILSDKDDSVTDEMIEAAIRTLEEAGISVERKQ	0.0259
HMGEPQAWNELIGNLLRQWEARQTGWTPARKREALDRVLGAADPAALYTRLQGLLKSWTQAMTDADA	-1.7
HMSNHYETLGVPRDASQEDIKRAYRRLARKLHPDVAGPGKAEEFKAVNEAYAVLSDEESRRMYDLGGDDAL	0.146
HMTTMYKSDVKGINYDVKAKSWFLRITFNGNQIPIGHFKTEEDAINVKQQLIPYIESKDYTSILAVKAKYS	-0.4
HMGYLNDRQRLIKDFITENQPLKVSDLVKQFPNIGLSTLKKDLQYLRGEQVLTMIGKGKGSVYVLNKK	-0.446
HMVPISGADFEKLSDYILQKAGAGSIQVKELLAGLKGMHEKNLWKAIDYLLAEEKIRIDKGGNISVK	-0.00539
HMGTPLYLLLAAEVRDRIATEQLAPHTAVPSERELAELHGVSRMTARQALALLESEGLVYRNPPRGTFVAE	-0.85
HMIINFDAIKLTTELNKYKRHKAIPNTFFDGTYTILDVRELYNDLTPKAQKIADELIEHYNVDVK	-1.88
HMIDRPLTLVEDYERFAGELAKITLRFMLDGRKRFNGRLAGFDEDGKIVLETSFGRFAFSFDEIDSARI	-2.68
HMTSSVIIPKLIGKTEEEAKVALAGLNVQVLYETHGDQANGIVIKQSFEEGTKVIKGVSIVITVNKVS	0.0698
HMDILEVLIKKDLAMELLEQLTERQRTVVYLRYFYQLNQKEIADYLGISQQRVSEILSRAKAVLTAYTKK	-1.43
HMVAFYATPKERGIYDDAETYREGDIVSIADGSRWIYVNPTATAGNDPADGSVYWERMSGAATGP	0.0147
HMENSMDTDWDVSGVDPSQYRLLFSTLGAIAGVKDVGLNPDGLKIIHTPEALPAIKQAFDANNLKLKMRTN	0.163
HMRLDSELVSARLHRFMGTNRKPDGEIVEKIAAILEGHPIETLDAFLQSLNGRKIKSYGFFPTVLRREIAN	-0.319
HMDTYDSIDSILEERHLSRRKLAQAIGLPPSTFQSMMSRKSGMTLEVLMKIVSYLQVSPDAFW	-2.12
HMNRETAISIYRILHILEEPYKEVFTLRTLGDLSYREIADIFGKQENWARVTYHRAKLKIREALVS	-2

Sequence	soluble fraction (log2)
HMNRKLKAKATREKIYKSAEKLFSQNDYNKVSVDAIVEAAGVAKGSFYVHFASKDALIAMLINDH	-0.179
HMEAYDTMEDRTTLAPGFAKLDKRERYILHLRFFEGLTQSQIAERVGISQMHVSRLIRRSLEKLREEIGD	-0.671
HMNTAIDGLIEKVGMFAMEKKAISVDQVKENFSINGEQAESVIKQLETIGVLGKKNEDGTHTVM	0.0766
HMADPLQLLEQQRQDYIQAVTEYLNSHPNAKPIWDVMKKDAGYGDMKLTDIPLGILKKLYITLT	-0.356
HMLEQISDINILSGYAKEVIAENPKTVSDYLSGKAAAFQALVGQVMKKTGGRGNPVIIQEILKRLIHKK	0.116
HMTGQHFDLEDTDGNLVYEIDSTVPLKTFYIYDAMHTEIFRMTKELLHALPTYRFYLYGEPYGVLKKQ	-0.174
HMGDAIPVPDVSGFSEDQAMNNLRKVGLRPKATYVADDNTAKGYVTGTSPAKNIEVAPDSEVIVYVSSGP	0.238
HMGASLVIVPGAGFLRVSASSQTRLDVYSITGMRVRSVDFEPGTTEIELPAGFYIAGGRKFFV	-1.4
HMQNKFLDIVGEIEVKAVDYYLLKDTSGLVIKFPKNLVFANGLKIADNKIGLTVSLYGAWVHEET	-1.17
HMTAQGDSSDAVQRAITEILRHEDPSHPFSDQQLVIKLRTMDISVSRRTVTKYRKLLHIPSSTHRK	-2.74
HMDEQLAWLYRKINAFSEIDKALILLYLEDKKYDEIAETLGISSVNARVKMNRIKKRLKEMINDR	-2.53
HMLHQSLVVNAASGRVTVSLDIVPDEDNPYAVLRATDDSDEPLAQVRVAPSFKLNRASALAWIESQFARP	-0.821
HMVITDPFFLEPENLVKDAVALMEKYRISGVPITKKGKLVGILTNRDLRFESNYEQPIANVMS	-0.0305
HMNGLPDLSRYTGVSIVDGLASVGSDSSFAYRAKIAETLGISDYKGSAGQNLEMIRKLGGKV	-0.291
HMPLPLYVQIKESLRGQIFDGTYGEHERLPSENDLMSSFGVSRITVRQALSDLEKEELIFKVPGKGAFVSR	-1.32
HMLYDNQLPDWAGQMVKNHGLTISPKALVILVDHIGNDLSRIENEIEKLMLNLGTRKSITEDDVEN	-1.28
HMLDLVSIGKRIKAERQKNGLTQEALAERIEVSAHYVYELERGLKAMSVPILLRMSEVLHTSTDYLLF	-2.9
HMGEILYSGVLKGGDGPEATKLALEKFLGEANTQVAGRIGVQPETQVIWLSREAVDSAASTLSQHKGNMYV	-0.085
HMLGERIKQIRKQKKMTQTDVATGIITKSMLSMIENGKATPSLPALQAIARRLQVTVEELML	-0.512
HMNHYIGVDRAKEIALNHANLSETDVVFTKEKLENDDGGAEYEIEFHSGRTEYDYTIDAASGNIIEYDVDY	0.421
HMSASAIYVRPKDVKEPEEVADYLSGVLELDREKLYKKITDKSQWIALIERKVDNDIAFDIRNKKFKGIEI	-0.0243
HMNNGAEIGAEIRSLRKARGLTLEDLAAKIGRSVGYISQVERGISPLTIPNLKAIAEVLGVGINWFFRGEA	-0.552
HMVSPEVEMLRAAVETMSERQKQVYELHYLRGFNVKETAAILGMSSPTVTAHKKRIMEIIKKFFE	-1.22
HMSLRVIEIFGTPQQMSARISLMDGSVTDVKVGQSIPGTSYKVASITGNGVWIQNGTAVSYTHL	-1.3
